Data as given in patent US20240092908A1.

Assays:
[1] = molecular target: fusion protein hPD1-HSA composed of a PD1 extracellular domain sequence and a human serum albumin sequence (human); experiment: competitive ELISA, hPD1-HSA coated; competitor bio-hPDL1-FC, HRP-Streptavidin
[2] = molecular target: fusion protein hPD1-HSA composed of a PD1 extracellular domain sequence and a human serum albumin sequence (human); experiment: ELISA, hPD1-HSA coated 200 ng/well, HRP anti-human IgG Fc

## Keytruda ® (antibody)
[1]
  IC50: 1.72 nM
[2]
  EC50: 0.181 nM
